According to US20180193486A1, “COMPOSITIONS AND METHODS FOR TREATMENT OF AUTOIMMUNE AND OTHER DISEASE” (priority 2010, published 2018):

Biological target: reconstituted human albumin (Homo sapiens, UniProt P02768)
Experiment: Release of CPT in reconstituted human albumin (PBS solution)
Assay type: in vitro ADME
Settings: compared with PBS
Protocol: This solution was added to a lyophilized powder of human plasma to reconstitute 100% human plasma by the recommended amount. The solution was divided into equal volume (250 μL) to 1.5 mL Eppendorf tubes, incubated at 37° C., and stopped at selected time point. Samples were stored at −80° C. until the analysis. Samples were separated from plasma by solid phase extraction columns. The solid phase extraction cartridge (Oasis HLB 1 cc cartridge from Waters) was pre-conditioned with 1 mL of acetonitrile and then with 1 mL of 8.5% H3PO4 before loading. Samples were acidified with equal volume of 8.5% H3PO4 prior to loading. After the acidified solution was loaded on the cartridge, the bed was washed with 3×1 mL of water. Released CPT and polymer conjugate were eluted with 3×1 mL of a solution mixture of acetonitrile and potassium phosphate buffer (pH 4.1) (60/40 v/v). The eluted solution was diluted to 5 mL total volume in a 5 mL volumetric flask. 30 μL of such solution was injected into the HPLC. The peak area from the CPT lactone form was integrated and compared to a standard curve.

reconstituted human albumin, sequence (P02768 25-609): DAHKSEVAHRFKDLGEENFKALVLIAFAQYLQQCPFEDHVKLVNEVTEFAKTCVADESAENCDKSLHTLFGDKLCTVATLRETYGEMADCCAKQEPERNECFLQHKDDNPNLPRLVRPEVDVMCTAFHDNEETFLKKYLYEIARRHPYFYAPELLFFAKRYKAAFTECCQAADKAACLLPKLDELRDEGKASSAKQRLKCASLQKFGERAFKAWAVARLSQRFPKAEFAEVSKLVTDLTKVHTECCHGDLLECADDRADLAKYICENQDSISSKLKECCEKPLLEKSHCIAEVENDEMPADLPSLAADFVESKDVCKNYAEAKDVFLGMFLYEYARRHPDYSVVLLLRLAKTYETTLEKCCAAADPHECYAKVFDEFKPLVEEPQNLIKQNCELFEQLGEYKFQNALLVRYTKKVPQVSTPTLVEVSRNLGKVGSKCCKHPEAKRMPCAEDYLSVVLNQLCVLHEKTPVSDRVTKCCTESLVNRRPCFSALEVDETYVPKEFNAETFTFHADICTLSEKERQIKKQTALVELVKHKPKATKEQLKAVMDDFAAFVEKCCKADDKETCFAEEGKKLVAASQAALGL

| Substance | CPT release rate in the presence of albumin |
| --- | --- |
| Poly(CDDCys-PA-PEG)-Gly-CPT [HG6] | on the same order of magnitude as in PBS |
| Poly(CDDCys-PA-PEG)-GlyGlyGly-CPT [HGGG6] | on the same order of magnitude as in PBS |
